# Data taken from publication doi:10.1101/2021.07.29.454247 (bioRxiv, 2021).
# B1: endogenous PKCγ of mouse brain and neurons (enzyme)
# chain: not shown
# Biological target: endogenous TRPM2 of mouse brain (mouse (endogenous in brain), UniProt Q91YD4 1-1506)
# Assay: co-IP
# Chain of endogenous TRPM2 of mouse brain (Q91YD4 whole entry): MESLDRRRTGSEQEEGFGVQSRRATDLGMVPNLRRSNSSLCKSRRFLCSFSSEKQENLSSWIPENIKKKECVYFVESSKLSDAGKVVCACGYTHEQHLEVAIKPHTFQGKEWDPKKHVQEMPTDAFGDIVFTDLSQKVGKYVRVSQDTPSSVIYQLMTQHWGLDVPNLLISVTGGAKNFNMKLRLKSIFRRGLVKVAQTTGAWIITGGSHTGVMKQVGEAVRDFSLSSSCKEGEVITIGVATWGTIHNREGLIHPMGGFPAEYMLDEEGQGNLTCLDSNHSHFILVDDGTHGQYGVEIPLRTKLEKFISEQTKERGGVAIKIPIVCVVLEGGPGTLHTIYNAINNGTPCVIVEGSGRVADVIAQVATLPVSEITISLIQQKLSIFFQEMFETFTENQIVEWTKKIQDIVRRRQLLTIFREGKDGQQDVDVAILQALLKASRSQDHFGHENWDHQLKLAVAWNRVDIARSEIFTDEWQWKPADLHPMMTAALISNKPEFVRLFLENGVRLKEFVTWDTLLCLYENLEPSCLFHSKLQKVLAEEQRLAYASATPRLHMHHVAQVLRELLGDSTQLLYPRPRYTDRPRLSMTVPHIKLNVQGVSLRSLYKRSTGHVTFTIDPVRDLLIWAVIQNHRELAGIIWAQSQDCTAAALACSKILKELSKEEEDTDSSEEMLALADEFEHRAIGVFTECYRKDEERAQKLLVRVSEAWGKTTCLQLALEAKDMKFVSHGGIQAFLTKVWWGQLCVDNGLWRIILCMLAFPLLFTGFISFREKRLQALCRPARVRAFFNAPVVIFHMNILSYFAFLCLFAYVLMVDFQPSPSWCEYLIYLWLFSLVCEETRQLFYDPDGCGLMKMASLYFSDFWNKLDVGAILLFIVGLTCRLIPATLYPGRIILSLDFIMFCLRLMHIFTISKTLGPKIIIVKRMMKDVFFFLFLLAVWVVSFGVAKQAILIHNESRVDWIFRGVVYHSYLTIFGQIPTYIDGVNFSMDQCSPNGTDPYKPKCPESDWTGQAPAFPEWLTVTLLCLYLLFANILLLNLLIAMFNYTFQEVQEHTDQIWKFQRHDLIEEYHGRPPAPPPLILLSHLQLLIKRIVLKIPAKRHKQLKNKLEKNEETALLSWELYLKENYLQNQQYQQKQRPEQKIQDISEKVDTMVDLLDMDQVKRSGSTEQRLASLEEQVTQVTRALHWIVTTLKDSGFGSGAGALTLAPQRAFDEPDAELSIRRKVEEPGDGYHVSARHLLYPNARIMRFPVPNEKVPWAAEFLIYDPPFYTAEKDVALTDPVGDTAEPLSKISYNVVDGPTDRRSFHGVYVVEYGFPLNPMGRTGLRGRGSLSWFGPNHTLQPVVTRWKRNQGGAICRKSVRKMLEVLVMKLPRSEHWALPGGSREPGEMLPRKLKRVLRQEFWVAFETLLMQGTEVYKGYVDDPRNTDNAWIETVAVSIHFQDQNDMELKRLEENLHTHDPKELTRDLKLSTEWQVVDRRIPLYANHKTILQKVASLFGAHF
binder,measurement,value
B1,"fold of PKCγ pulled down by anti-TRPM2, MCAO against sham",~1.5 fold
